Measurements as given in patent US20260193317A1, “COMBINATION THERAPY WITH ACTRIIB RECEPTOR VARIANTS AND GLP-1 AGONISTS” (35PHARMA Inc., priority 2023, published 2026).

Assays:
BMP-10 [1] = target: T1, BMP-10 (Homo sapiens, UniProt O95393); assay: BMP-10 binding by bio-layer interferometry (BLI); details: single concentration 12.5 nM BMP-10
T1 sequence (O95393 317-424): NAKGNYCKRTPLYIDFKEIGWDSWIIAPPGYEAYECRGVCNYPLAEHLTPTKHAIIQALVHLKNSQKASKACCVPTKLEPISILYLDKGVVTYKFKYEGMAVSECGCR
Method: To determine potency on BMP-10, the same BMP-reporter cell line was used as described above. A final concentration of 2.5 nM of each expressed protein was tested in the presence of 40 ng/mL of BMP-10 (R&D #2926-BP). In this assay, a loss of signal indicates neutralization of BMP-10 by the exemplary agent. Results are expressed as a % of the signal obtained with the cytokine alone. A separate assay was used to estimate BMP-10 binding, using bio-layer interferometry (BLI) on a Gator® Plus instrument (Gator Bio, Palo Alto, USA). An anti-Human IgG Fc Gen II probe (#160024, Gator Bio) was loaded with expressed proteins in CHO supernatants, following which BMP-10 binding kinetics (single concentration, 12.5 nM) were assessed.

BMP-10 [2] = target: T1, BMP-10; assay: Small-scale BMP-10 BMP-reporter cell-based assay, single concentration; details: […] protein, 40 ng/mL BMP-10
Method: Characterization of the BMP-9 and BMP-10 inhibition potency (IC50) of the fusion proteins was performed using a second cell-based reporter assay. Human hepatic HepG2 cells were transfected with a SEAP-encoding plasmid, in which SEAP expression is under the control of the murine Id1 promoter. A stable pool was generated from this transfection. Cells were grown in EMEM, containing 10% heat-inactivated FBS and 200 μg/mL zeocin (hereafter, “HepG2 growth medium”). […] For all assays, cells were seeded in 96-well plates at a confluence of 100,000 cells per well in HepG2 growth medium. Cells were left to attach for 10 minutes at RT prior to being transferred to a 37° C. incubator (5% CO2) overnight. […] At the end of the incubation, absorbance was read at 650 nm. […]
Small-scale testing of ActRIIB-ECD fusion proteins. […] After 7 days, the supernatant was harvested, clarified, and the amount of expressed protein in each well was quantified using standard methods. The potency of each agent for inhibition of activin A, BMP-9 and BMP-10 was determined in three separate assays.
To determine potency on BMP-10, the same BMP-reporter cell line was used as described above. […] Results are expressed as a % of the signal obtained with the cytokine alone. […]

BMP-9 [3] = target: T2, BMP-9 (Homo sapiens, UniProt Q9UK05); assay: Small-scale BMP-9 ELISA with CHO supernatants; format: binding; details: BMP-9 10 ng/mL
T2 sequence (Q9UK05 320-429): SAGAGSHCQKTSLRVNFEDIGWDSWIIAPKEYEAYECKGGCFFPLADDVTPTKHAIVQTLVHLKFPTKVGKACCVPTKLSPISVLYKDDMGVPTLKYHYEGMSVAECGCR
Method: (§1) Small-scale testing of ActRIIB-ECD fusion proteins. Additional investigation of a series of exemplary agents was performed using proteins expressed in CHO cells. Briefly, DNA encoding the ActRIIB-ECD-Fc fusion constructs was transfected in cells seeded in 12-well plates in a final volume of 1 ml. After 7 days, the supernatant was harvested, clarified, and the amount of expressed protein in each well was quantified using standard methods. The potency of each agent for inhibition of activin A, BMP-9 and BMP-10 was determined in three separate assays.
The next day, the plate was washed three times. […] Expressed proteins in the supernatants were diluted 1 in 2 in assay diluent (0.5% BSA, 0.05% tween-20 in PBS) and 100 μl was added to the 96-well plate in technical duplicates. After a 1.5-hour incubation at RT, the plate was washed three times. […] In this assay, a loss of signal indicates less binding of the exemplary agent to BMP-9. Results are expressed as a % of the signal obtained with wild-type ActRIIB-Fc (P75).

activin A = target: T3, activin A (Homo sapiens, UniProt P08476); assay: Small-scale activin A ELISA with CHO supernatants; details: 1 μg/mL protein, 30 ng/mL activin A, loss of signal = binding
T3 sequence (P08476 311-426): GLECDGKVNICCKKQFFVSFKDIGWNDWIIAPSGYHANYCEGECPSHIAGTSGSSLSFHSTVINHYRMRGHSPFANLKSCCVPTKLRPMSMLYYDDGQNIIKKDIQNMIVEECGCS
Method: as §1
The next day, the plate was washed three times with buffer (Biolegend #421601). […] Expressed proteins in the supernatants described above were diluted to 2 μg/mL in assay diluent (0.5% BSA, 0.05% tween-20 in PBS), mixed 1:1 with recombinant human activin A (R&D #338-AC, 60 ng/mL, diluted in assay diluent). Complexes were immediately added to the 96-well plate in technical duplicates and incubated for 1 h at RT (concentration of expressed protein and activin A on the plate were 1 μg/mL and 30 ng/mL, respectively). […] In this assay, a loss of signal indicates binding of the exemplary agent to activin A, which prevents activin A binding to the anti-activin A antibody on the plate. Results are expressed as a % of the signal obtained with wild-type ActRIIB-Fc (P75).

[4] = target: T4, recombinant human activin A (human, UniProt P08476 311-426); assay: direct ELISA, activin A coated, anti-human Fc-HRP; co-formulation with semaglutide, D 7 at 2-8°C
T4 construct: also called R&D #338-AC
T4 sequence (looked up): T3 sequence (P08476 311-426)
Method: (§3) In each case, the following parameters were assessed: a) monomer content (size exclusion chromatography), b) activin A and GDF-8 neutralization (cell-based assays [CBAs]), c) activin A binding (ELISA), d) GLP-1 receptor binding (ELISA).
(§4) Potency testing by ELISA. […] Blocking buffer (1% BSA, 0.05% tween-20 in PBS, 300 μL/well) was added to each well and the plate was incubated for 1 hour at RT. Starting at 2.5 μg/mL, test agents were diluted in assay diluent (1% BSA, 0.05% tween-20 in PBS, 100 μL/well) and loaded on the plate for 1 h at RT.

GDF-11 = GDF-11 (UniProt O95390 299-407); assay: cell-based or functional assay
activin B = target: T5, activin B (UniProt P09529 293-407); assay: cell-based or functional assay
T5 sequence (looked up): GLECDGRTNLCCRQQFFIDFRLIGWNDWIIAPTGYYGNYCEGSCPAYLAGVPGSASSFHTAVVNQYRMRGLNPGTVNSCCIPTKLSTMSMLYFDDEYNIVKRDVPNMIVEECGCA

GDF-8 = GDF-8 (UniProt O14793 267-375); assay: cell-based or functional assay
[5] = target: T4, recombinant human activin A; assay: cell-based or functional assay
[6] = target: T4, recombinant human activin A; assay: direct ELISA, activin A coated, anti-human Fc-HRP; co-formulation with semaglutide, D 7 at room temperature
Method: as §3, §4

[7] = target: T4, recombinant human activin A; assay: direct ELISA, activin A coated, anti-human Fc-HRP; co-formulation with semaglutide, D 28 at 2-8°C
Method: as §3, §4

[8] = target: T4, recombinant human activin A; assay: direct ELISA, activin A coated, anti-human Fc-HRP; co-formulation with semaglutide, D 0
Method: as §3, §4

[9] = target: T4, recombinant human activin A; assay: direct ELISA, activin A coated, anti-human Fc-HRP; co-formulation with semaglutide, D 28 at room temperature
Method: as §3, §4

BMP-9 [10] = target: T6, BMP-9 (UniProt Q9UK05 320-429); assay: cell-based or functional assay
T6 sequence (looked up): T2 sequence (Q9UK05 320-429)

BMP-10 [11] = target: T7, BMP-10 (UniProt O95393 317-424); assay: cell-based or functional assay
T7 sequence (looked up): T1 sequence (O95393 317-424)

[12] = test system: diet-induced obese (DIO) mice; assay: Body composition and metabolism in diet-induced obese (DIO) mice; format: in vivo
Method: (§2) Experiments were performed to assess the effects of P1229 on body composition and metabolism in diet-induced obese (DIO) mice. DIO mice were purchased from Jackson Laboratories (#380050). Briefly, mice were fed a high-fat diet (HFD, 60% kcal from fat) from 6 weeks of age until 22 weeks of age (total of 16 weeks on the HFD). […] After 3 weeks of treatments, some animals were sacrificed and scanned by EchoMRI […] (FIGS. 11A-F), while others were sacrificed for tissue collection and RNA analysis. Animals were maintained on the HFD throughout the acclimatization and treatment periods. The murine version of bimagrumab used for these experiments comprises the heavy chain amino acid sequence of SEQ ID NO: 376 and the light chain sequence of SEQ ID NO: 377.

[13] = test system: follicle-stimulating hormone (FSH); assay: FSH production in DIO mice; format: in vivo; details: 3 weeks of treatment
Method: as §2
Follicle-stimulating hormone (FSH) is a known biomarker of in vivo target engagement for activin receptor-based traps (See Attie et al. (2013). Muscle Nerve, 47: 416-423). To further validate in vivo target engagement for exemplary agents, FSH production was evaluated in DIO mice, as described above.

DIO mice = assay: Body composition in high fat diet mice, alone and in combination with incretin mimetics; format: in vivo
Method: Experiments were performed in vivo to investigate the potential for additive or synergistic effects between exemplary ActRIIB-ECD polypeptide constructs and incretin mimetics.

Chain of GDF-11 (O95390 299-407 limits assumed): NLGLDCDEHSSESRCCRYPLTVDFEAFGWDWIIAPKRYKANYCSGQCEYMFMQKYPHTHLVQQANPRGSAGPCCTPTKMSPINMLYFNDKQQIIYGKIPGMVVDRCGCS

“P444: WT hActRIIA, 3 aa linker (GGG), IgG1 Fc; SEQ ID 173 [reference compound]” was tested, and the “BMP-10 KD by bio-layer interferometry” value (BMP-10 [1]) was “higher KD (lower affinity) than P75”, the “BMP-10 neutralization, signal relative to BMP-10 alone” value (BMP-10 [2]) was “less neutralization (i.e., greater signal) than P75” and the “BMP-9 binding, ELISA signal relative to P75” value (BMP-9 [3]) was “near undetectable binding to BMP-9”. The “activin A binding, ELISA signal relative to P75” value (activin A) was “comparable activin A binding profile to P75”.

B1: P1372 (Fc fusion)
chain: ETRECIYYNANWELERTNQSGLERCEGEQDKRWHCYASWRNSSGTIELVKKGCWLDDFNCYDRQECVATEENPQVYFCCCEGNFCNERFTHLPEAGGPEVTYEPPPTGGGGSGGGGSGGGGTHTCPPCPAPELLGGPSVFLFPPKPKDTLYITREPEVTCVVVDVSHEDPEVKFNWYVDGVEVHNAKTKPREEQYNSTYRVVSVLTVLHQDWLNGKEYKCKVSNKALPAPIEKTISKAKGQPREPQVYTLPPSRDELTKNQVSLTCLVKGFYPSDIAVEWESNGQPENNYKTTPPVLDSDGSFFLYSKLTVDKSRWQQGNVFSCSVMHEALHNHYTQKSLSLSPG
notes: also tested in co-formulation with semaglutide, tirzepatide or retatrutide; also called ActRIIB ligand trap P1372
In the case of B1, the “ELISA potency fold-change vs P1372 alone (ref = 1)” value (“ELISA potency fold-change” for short) [4] is reported as 0.85 fold, the “GDF-11 IC50; TGFβ-reporter HEK293 cells” value (GDF-11) is reported as 0.53 nM and the “Activin B IC50; TGFβ-reporter HEK293 cells” value (activin B) is reported as 2 nM. The “GDF-8 IC50; TGFβ-reporter HEK293 cells” value (GDF-8) was 0.18 nM, the “Activin A IC50; TGFβ-reporter HEK293 cells” value [5] was 0.56 nM and the “ELISA potency fold-change” value [6] was 1.4 fold. For the same molecule, the “ELISA potency fold-change” value [7] was 1.3 fold, the “ELISA potency fold-change” value [8] was 0.98 fold and the “ELISA potency fold-change” value [9] was 0.79 fold. For the same molecule, the “BMP-9 IC50; BMP-reporter HepG2 cells” value (BMP-9 [10]) was > 1000 nM and the “BMP-10 IC50; BMP-reporter HepG2 cells” value (BMP-10 [11]) was > 100 nM.

B2: P1307: murine version of bimagrumab, an antibody targeting ActRIIB and ActRIIA; heavy chain SEQ ID NO: 376, light chain SEQ ID NO: 377 (antibody)
heavy: MDWTWRILFLVAAATGTHAQVQLVQSGAEVKKPGASVKVSCKASGYTFTSSYINWVRQAPGQGLEWMGTINPVSGSTSYAQKFQGRVTMTRDTSISTAYMELSSLRSEDTAVYYCARGGWFDYWGQGTLVTVSSAKTTAPSVYPLAPVCGDTTGSSVTLGCLVKGYFPEPVTLTWNSGSLSSGVHTFPAVLQSDLYTLSSSVTVTSSTWPSQSITCNVAHPASSTKVDKKIEPRGPTIKPCPPCKCPAPNAAGGPSVFIFPPKIKDVLMISLSPIVTCVVVDVSEDDPDVQISWFVNNVEVHTAQTQTHREDYNSTLRVVSALPIQHQDWMSGKEFKCKVNNKDLPAPIERTISKPKGSVRAPQVYVLPPPEEEMTKKQVTLTCMVTDFMPEDIYVEWTNNGKTELNYKNTEPVLDSDGSYFMYSKLRVEKKNWVERNSYSCSVVHEGLHNHHTTKSFSRTPGK
light: MVLQTQVFISLLLWISGAYGDIALTQPASVSGSPGQSITISCTGTSSDVGSYNYVNWYQQHPGKAPKLMIYGVSKRPSGVSNRFSGSKSGNTASLTISGLQAEDEADYYCGTFAGGSYYGVFGGGTKLTVLGQPKSTPTLTVFPPSSEELKENKATLVCLISNFSPSGVTVAWKANGTPITQGVDTSNPTKEGNKFMASSFLHLTSDQWRSHNSFTCQVTHEGDTVEKSLSPAECL
In the case of B2, the “hepatic Ahsg expression” value [12] is reported as “reduced Ahsg expression”, the “hepatic Fgf21 expression” value [12] is reported as “reduced” and the “hepatic Inhbe expression” value [12] is reported as “significantly decreased Inhbe expression”. The “Mss51 gene expression in gastrocnemius muscle” value ([12]; 3 weeks) was “reduced Mss51 gene expression”, the “fat mass and lean mass (EchoMRI)” value ([12]; 3 weeks s.c., P75, P1229 25 mg/kg twice weekly, P1373 5, 20, 50 mg/kg twice weekly, P1307 20 mg/kg weekly) was “promoted lean mass gain but less fat loss” and the FSH production [13] was “significant decreases in FSH production”. For the same molecule, the “Body weight (% change from baseline)” value (DIO mice; DIO mice, 21 days s.c., P1307 20 mg/kg weekly, P1229 40 mg/kg twice weekly, semaglutide 40 μg/kg daily, tirzepatide 45 μg/kg daily, alone or combined) was “+5.4%”, the “visceral, epididymal, pericardial, peri-renal, and retroperitoneal white adipose tissue weights” value (DIO mice; DIO mice, D21) was “not significantly affected” and the “gastrocnemius and tibialis anterior weights” value (DIO mice; DIO mice, D21, P1229 with or without caloric restriction) was “significantly increased”. The “Fat mass (% change from baseline)” value (DIO mice; as E44, NMR) was −5.7%, the “Lean mass (% change from baseline)” value (DIO mice; as E44, NMR) was “+12.3%” and the “Lean mass/fat mass ratio” value (DIO mice; as E44, NMR) was 1.4.
